Source: article PMC6426841, “Reversible histone glycation is associated with disease-related changes in chromatin architecture” (Nature Communications, 2019)
Ends that are not written are not given here.

Molecular target: T1, recombinant His6-tagged wild-type DJ-1 (UniProt Q99497 1-189)
T1 construct: DJ-1 (PARK7), wild type, expressed from the plasmid pET3a-His-DJ1; No removal of the His6 tag is described; The plasmid pET3a-His-DJ1 (Addgene 51488) tells the exact construct; also called PARK7; recombinant DJ-1; source: E. coli Rosetta (DE3), purified (Ni2+-NTA agarose, desalting)
T1 sequence (looked up): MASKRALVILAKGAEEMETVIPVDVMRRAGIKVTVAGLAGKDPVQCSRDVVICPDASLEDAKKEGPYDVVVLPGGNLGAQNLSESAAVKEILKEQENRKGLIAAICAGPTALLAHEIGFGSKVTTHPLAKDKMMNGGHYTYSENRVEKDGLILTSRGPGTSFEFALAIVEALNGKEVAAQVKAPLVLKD
Assay: pull-down; biotinylated H3 (1-18) peptide, glycated or not, incubated with recombinant DJ-1 at 4 °C for 2 h; peptide pulled down on BSA-blocked streptavidin magnetic beads, washed 3 times with 1x PBS pH 7.4, boiled; western blot with anti-DJ-1
Details: both partners purified

B1: glycated (MGO-treated) biotinylated H3 N-terminal tail peptide (residues 1-18) (peptide, UniProt Q71DI3 2-19, looked up)
peptide: ARTKQTARKSTGGKAPRK
modifications: not fully specified (N-terminus, C-terminus); also: MGO glycation adducts, sites not given here
notes: histone H3 N-terminal tail, residues 1-18; The methods speak of 'N-terminal biotinylated H3 peptides', the results of a C-terminal biotin; also called glycated H3 tail; glycated biotin-H3 tail; source: synthetic peptide (Fmoc-SPPS, RP-HPLC purified), treated with MGO at 1:3 peptide:MGO, 37 °C, 30 min; not shown: biotin, C-terminal, kept
- binding result: binds
